In assay [1] the target is T1, human OX40 expressed on cells (human, UniProt P43489 29-277).
T1 construct: whole, on cells; also called OX40 expression HEK293 cells
T1 sequence (looked up): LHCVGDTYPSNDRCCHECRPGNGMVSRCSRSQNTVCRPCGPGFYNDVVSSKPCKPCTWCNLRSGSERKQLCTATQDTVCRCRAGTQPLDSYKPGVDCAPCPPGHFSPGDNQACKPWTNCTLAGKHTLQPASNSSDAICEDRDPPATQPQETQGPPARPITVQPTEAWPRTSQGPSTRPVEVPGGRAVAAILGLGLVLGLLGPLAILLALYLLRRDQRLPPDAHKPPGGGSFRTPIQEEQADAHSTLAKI
As to the kind of experiment: phage display selection and cell-based ELISA screening. How it is done:
(§1) For the generation of therapeutic antibodies against PD-L1 or OX40, selections with the OmniMab phagemid library were carried out. The phagemid library is generated by AP Biosciences Inc. (APBio Inc.) from a collection of over hundred health donors B cells. Phages for the 1st round of pannings were prepared by Hyperphage (M13K07ΔρIII, Progen, Heidelberg, Germany). Solid phase panning and cell panning against PD-L1 or OX40 were applied for PD-L1 or OX40 specific binder selection and isolation from OmniMab library. […] Bound phages were detected by HRP conjugated anti-M13 antibody (Roche) and TMB substrate was used for signal development. The OD₄₅₀ readings were recorded. The positive binders were isolated and sent for sequencing to confirm the sequence and diversity of heavy chain and light chain.
(In general: In an ELISA, binding on a coated surface is turned into a signal by an enzyme label.)

Another assay addresses T2, human PD-L1 (human, UniProt Q9NZQ7 19-238, limits assumed).
T2 construct: also called recombinant PD-L1
As to the kind of experiment: direct ELISA.

Assay [2] addresses T3, human PD-L1 expressed on cells (human, UniProt Q9NZQ7 19-290).
T3 construct: whole, on cells; also called PD-L1 expression HEK293 cells
As to the kind of experiment: flow cytometry on stable PD-L1 expression 293 cells, IFN-γ stimulated A549 or WiDr. The text has this: The bound antibody fusion proteins were detected with Alexa-488 conjugated goat anti-human IgG (H+L) followed by FACS analysis. Isotype antibody was used as negative control for the test.
Background: In flow cytometry, cells or beads pass a laser one at a time.

Assay [3] addresses T4, human PD-L1 IgG1 Fc chimera (human, UniProt Q9NZQ7 19-238, limits assumed).
T4 construct: Made by APBio; also called PD-L1-Fc; recombinant human PD-L1-Fc
As to the kind of experiment: phage display selection and direct ELISA screening. How it is done: as §1

T3 sequence (Q9NZQ7 19-290): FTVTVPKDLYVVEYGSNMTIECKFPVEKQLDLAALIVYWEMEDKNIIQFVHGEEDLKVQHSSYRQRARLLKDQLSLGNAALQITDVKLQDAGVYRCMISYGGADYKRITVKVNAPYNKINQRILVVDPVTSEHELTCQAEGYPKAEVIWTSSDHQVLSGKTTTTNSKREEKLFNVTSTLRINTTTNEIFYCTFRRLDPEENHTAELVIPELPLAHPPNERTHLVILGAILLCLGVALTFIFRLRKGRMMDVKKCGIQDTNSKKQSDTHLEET
T2 sequence (Q9NZQ7 19-238 limits assumed): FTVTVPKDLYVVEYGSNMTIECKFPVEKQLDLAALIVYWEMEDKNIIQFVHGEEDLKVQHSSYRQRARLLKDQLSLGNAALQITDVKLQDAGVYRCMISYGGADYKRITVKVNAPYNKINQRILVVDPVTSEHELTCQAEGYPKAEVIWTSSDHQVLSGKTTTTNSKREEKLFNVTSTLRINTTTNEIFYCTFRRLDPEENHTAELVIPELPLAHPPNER
T4 sequence (Q9NZQ7 19-238 limits assumed, change not shown): as the sequence (Q9NZQ7 19-238 limits assumed) above

B1: OM-OX40-A4 (Fab, V domains shown)
VH: QVQLVESGGGLVQPGGSLRLSCAASGFTFSSYEMNWVRQAPGKGLEWVSYISSSGSTIYYADSVKGRFTISRDNAKNSLYLQMNSLRAEDTAVYYCARGGVGDAFDIWGQGTMVTVSS
VL: QSALTQPPSASGSPGQSVTISCTGTSSDVGGYNYVSWYQQHPGKAPKLMIYEVSQRPSGVPDRFSGSKSGNTASLTVSGLQAEDEADYYCSSYAGSNNLGVFGGGTKLTVSS
notes: Fab from the phage library
On to B1, for which, in assay [1], the binding result was “binds”.

B2: anti-PD-L1 antibody clone 6 (antibody, human IgG4 S228P, lambda, V domains shown)
VH: QVQLVQSGAEVKKPGSSVKVSCKASGGTFRRYSISWVRQAPGQGLEWMGGIIPVFGAAKYAQKFQGRVTITADEFTSTAYMELSSLTSEDTAVYYCALSGDSDAFDIWGQGTMVTVSS
VL: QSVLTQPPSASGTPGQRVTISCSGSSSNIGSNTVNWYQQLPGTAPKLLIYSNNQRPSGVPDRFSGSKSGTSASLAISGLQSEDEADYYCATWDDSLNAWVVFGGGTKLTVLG
notes: also called PD-L1 clone 6; PD-L1-Clone 6
In the case of B2, the binding result (with human PD-L1; in assay [2]) was “binds” in each case.

B3: OM-PD-L1-6 (Fab, V domains shown)
VH: QVQLVQSGAEVKKPGSSVKVSCKASGGTFRRYSISWVRQAPGQGLEWMGGIIPVFGAAKYAQKFQGRVTITADEFTSTAYMELSSLTSEDTAVYYCALSGDSDAFDIWGQGTMVTVSS
VL: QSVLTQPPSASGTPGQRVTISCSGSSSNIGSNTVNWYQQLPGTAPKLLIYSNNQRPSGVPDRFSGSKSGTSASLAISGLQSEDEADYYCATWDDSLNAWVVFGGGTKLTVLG
notes: Fab from the phage library
For the molecule B3, the binding result in assay [3] is recorded as “binds”.

B4: OM-OX40-B17 (Fab, V domains shown)
VH: EVQLVESGGVVVQPGGSLRLSCAASGFTFDDYTMHWVRQAPGKGLEWVSLISWDGGSTYYADSVKGRFTISRDNSKNSLYLQMNSLRTEDTALYYCASIYDPPPGSRSALDAFDIWGQGTMVTVSS
VL: SYVLTQPPSVSVTPGKTARIACGGNNLESKIVSWYQQKPGQAPVLVIFYDTDRPSGISERFSGSNSGNTATLTISRVEAGDEADYYCQVWDSNSDHVIFGGGTKLTVLG
notes: Fab from the phage library; variable regions identical to those of OX40 clone B17
On to B4, for which, in assay [1], the binding result is recorded as “binds”.

B5: OM-OX40-B19 (Fab, V domains shown)
VH: EVQLVESGGGLVKPGGSLRLSCAASGFTFSSYSMNWVRQAPGKGLEWVSSISSSSRYIYYADSVKGRFTISRDNAKNSLYLQMNSLRAEDTAVYYCARQNEDVAFGIWGQGTMVTVSS
VL: SYVLTQPPSVSVTPGKTARIACGGNNLESKIVSWYQQKPGQAPVLVIFYDTDRPSGISERFSGSNSGNTATLTISRVEAGDEADYYCQVWDSNSDHVIFGGGTKLTVLG
notes: Fab from the phage library; variable regions identical to those of OX40 clone B19
In the case of B5, the binding result in assay [1] was “binds”.

Values taken from US20250346678A1 (AP BIOSCIENCES, published 2025).
